For 14 molecules, Kd results are on record in PMC6377682 (2019).

Usually Kd stands for the equilibrium constant for the complex coming apart. Lower therefore signals tighter binding.

Sequences and labels used below:
B6: human ASPP2^920-1120 (domain or fragment)
chain: MRVKFNPLALLLDSSLEGEFDLVQRIIYEVDDPSLPNDEGITALHNAVCAGHTEIVKFLVQFGVNVNAADSDGWTPLHCAASCNNVQVCKFLVESGAAVFAMTYSDMQTAADKCEEMEEGYTQCSQFLYGVQEKMGIMNKGVIYALWDYEPQNDDELPMKEGDCMTIIHREDEDEIEWWWARLNDKEGYVPRNLLGLYPRI
B7: human PP1β^6-327 (enzyme)
chain: LNVDSLITRLLEVRGCRPGKIVQMTEAEVRGLCIKSREIFLSQPILLELEAPLKICGDIHGQYTDLLRLFEYGGFPPEANYLFLGDYVDRGKQSLETICLLLAYKIKYPENFFLLRGNHECASINRIYGFYDECKRRFNIKLWKTFTDCFNCLPIAAIVDEKIFCCHGGLSPDLQSMEQIRRIMRPTDVPDTGLLCDLLWSDPDKDVQGWGENDRGVSFTFGADVVSKFLNRHDLDLICRAHQVVEDGYEFFAKRQLVTLFSAPNYCGEFDNAGGMMSVDETLMCSFQILKPSEKKAKYQYGGLNSGRPVTPPRTANPPKKR

The target of the assay “human ASPP2^920-1120” is B6. Briefly: ITC. (Isothermal titration calorimetry measures the heat released or taken up as one component is titrated into another.)
A further assay addresses human PP1γ1^7-323 (human, UniProt P36873 7-323). As to the kind of experiment: BLI. (In general: Biolayer interferometry detects binding as a change in optical thickness at a sensor tip.)
The target of a further assay is human PP1α^7-330 (human, UniProt P62136 7-330). As to the kind of experiment: BLI.
The next assay concerns the target T1, ASPP2^D1091G/E1092P (human, UniProt Q13625 920-1120, D1091G | E1092P).
T1 sequence: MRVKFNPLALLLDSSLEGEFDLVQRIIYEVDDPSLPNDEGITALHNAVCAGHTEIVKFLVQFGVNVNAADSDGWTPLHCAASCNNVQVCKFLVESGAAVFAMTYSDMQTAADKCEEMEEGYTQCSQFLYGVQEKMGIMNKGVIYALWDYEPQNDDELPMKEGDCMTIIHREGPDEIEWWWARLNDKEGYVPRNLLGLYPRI
Briefly: ITC.

The assay “human PP1β^6-327” has as its target B7. Briefly: BLI.
In another assay the target is T2, ASPP2^E1090K/D1093S (human, UniProt Q13625 920-1120, E1090K | D1093S).
T2 sequence: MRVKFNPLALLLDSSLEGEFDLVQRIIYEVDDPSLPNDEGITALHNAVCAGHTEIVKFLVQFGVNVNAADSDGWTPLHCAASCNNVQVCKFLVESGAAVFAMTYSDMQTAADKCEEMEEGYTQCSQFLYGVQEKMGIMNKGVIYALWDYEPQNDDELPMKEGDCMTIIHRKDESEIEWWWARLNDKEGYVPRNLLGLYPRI
As to the kind of experiment: BLI.

For a further assay, the target named is T3, ASPP1^K1052E/S1055D (human, UniProt Q96KQ4 882-1090, K1052E | S1055D).
T3 sequence: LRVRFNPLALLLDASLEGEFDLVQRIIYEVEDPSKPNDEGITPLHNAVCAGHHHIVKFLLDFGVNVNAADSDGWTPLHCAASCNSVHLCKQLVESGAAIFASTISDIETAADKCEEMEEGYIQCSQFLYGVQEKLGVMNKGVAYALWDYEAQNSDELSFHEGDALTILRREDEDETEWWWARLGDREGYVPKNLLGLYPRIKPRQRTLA
Briefly: BLI.

A further assay addresses T4, ASPP2^D1093S (human, UniProt Q13625 920-1120, D1093S).
T4 sequence: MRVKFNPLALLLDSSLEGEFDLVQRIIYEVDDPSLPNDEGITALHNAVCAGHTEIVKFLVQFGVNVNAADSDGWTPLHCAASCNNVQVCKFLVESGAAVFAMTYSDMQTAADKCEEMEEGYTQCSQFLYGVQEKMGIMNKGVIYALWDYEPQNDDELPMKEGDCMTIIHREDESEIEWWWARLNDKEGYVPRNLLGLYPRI
As to the kind of experiment: BLI.

As for KNKGKYGQFSGLNPGGRPITPPRNSAAAKK [PP1α^301-330 K327A peptide], the affinity in the assay with human ASPP2^920-1120, expressed as Kd, was 520 nM.

Molecule KNKGKYGQFSGLNPGGRPITPPRNSAKAKA [PP1α^301-330 K330A peptide] gave a Kd with human ASPP2^920-1120 of 326 nM.

The molecule PAEKKKPNATRPVTPPRGMITKQAKK [PP1γ1^298-323 C-tail peptide] displayed a dissociation constant Kd with human ASPP2^920-1120 of 690 nM.

B1: PP1β^297-327 chimera with the PP1α C-terminal residues NSAKAKK (peptide)
chain: PSEKKAKYQYGGLNSGRPVTPPRNSAKAKK
modifications: synthetic peptide, termini not stated; the end of the PPII motif (RPVTPPR) is taken as Arg319 by alignment with PP1α 317-323
On to B1, for which, in the assay with human ASPP2^920-1120, the Kd was 200 nM.

With KNKGKYGQFSGLNPGGRPITPPRNSAKAAK [PP1α^301-330 K329A peptide], the equilibrium dissociation constant (Kd) with human ASPP2^920-1120 came out at 342 nM.

B2: PP1γ1^298-323 chimera with the PP1α C-terminal residues NSAKAKK (peptide)
chain: PAEKKKPNATRPVTPPRNSAKAKK
modifications: synthetic peptide, termini not stated; the end of the PPII motif (RPVTPPR) is taken as Arg314 by alignment with PP1α 317-323
B2 had a Kd in the assay with human ASPP2^920-1120 of 326 nM.

B3: human iASPP^621-828 (domain or fragment)
chain: RRARLNPLVLLLDAALTGELEVVQQAVKEMNDPSQPNEEGITALHNAICGANYSIVDFLITAGANVNSPDSHGWTPLHCAASCNDTVICMALVQHGAAIFATTLSDGATAFEKCDPYREGYADCATYLADVEQSMGLMNSGAVYALWDYSAEFGDELSFREGESVTVLRRDGPEETDWWWAALHGQEGYVPRNYFGLFPRVKPQRSKV
For the molecule B3, the figures for the equilibrium dissociation constant (Kd) with human PP1γ1^7-323 and in the assay with human PP1α^7-330 were 4.9 nM and 2.4 nM, respectively.

In the case of KNKGKYGQFSGLNPGGRPITPPRNSAKAKK [PP1α^301-330 C-tail peptide], in the assay with ASPP2^D1091G/E1092P, the affinity, expressed as Kd, was 172 nM. This counts as sub-micromolar.

B4: PP1γ2^297-324 chimera with the PP1α C-terminal residues NSAKAKK (peptide)
chain: KPAEKKKPNATRPVTPPRNSAKAKK
modifications: synthetic peptide, termini not stated; γ2 is identical to γ1 through the PPII motif (end taken as Arg314 by alignment), so the canonical entry is used
B4 had a dissociation constant Kd with human ASPP2^920-1120 of 326 nM.

B5: human ASPP1^882-1090 (domain or fragment)
chain: LRVRFNPLALLLDASLEGEFDLVQRIIYEVEDPSKPNDEGITPLHNAVCAGHHHIVKFLLDFGVNVNAADSDGWTPLHCAASCNSVHLCKQLVESGAAIFASTISDIETAADKCEEMEEGYIQCSQFLYGVQEKLGVMNKGVAYALWDYEAQNSDELSFHEGDALTILRRKDESETEWWWARLGDREGYVPKNLLGLYPRIKPRQRTLA
As to B5, the results for the Kd with human PP1β^6-327, with human PP1γ1^7-323 and with human PP1α^7-330 were 66.5 nM, 60.6 nM and 59 nM, respectively.

For KPAEKKKPNATRPVTPPRVASGLNPSIQ [PP1γ2^297-324 C-tail peptide], the Kd with human ASPP2^920-1120 stood at 2150 nM.

B6: the Kd with human PP1β^6-327 amounted to 177 nM; with human PP1γ1^7-323 it was 195 nM.

In the assay with human ASPP2^920-1120, PSEKKAKYQYGGLNSGRPVTPPRTANPPKKR [PP1β^297-327 C-tail peptide] displayed a Kd of 965 nM.

On to B7, for which the results for the Kd with ASPP2^E1090K/D1093S, with ASPP1^K1052E/S1055D and with ASPP2^D1093S were 178 nM, 84.4 nM and 136 nM, respectively.
